The values that follow come from publication PMC9119546, “MDM2 E3 ligase activity is essential for p53 regulation and cell cycle integrity” (PLoS Genetics, 2022).

Assay [1] addresses T1, HA-HDM2L468A (human, recombinant) (human, UniProt Q00987 1-491, L468A).
T1 construct: human MDM2 (HDM2) with L468A; also called HA-HDM2LA; mutant HDM2 (HA-HDM2L468A); source: insect cell expression, purified as described previously [13]; not shown: HA, N-terminal, kept
Description: pull-down; 500 ng FLAG-MDM4 with 500 ng HA-HDM2 or HA-HDM2L468A in NP40 buffer (20 mM Tris-HCl pH 8.0, 150 mM NaCl, 0.5% NP40); anti-FLAG M2 beads, 1 hour at room temperature; eluted with 3xFLAG peptide; blot for HA. As to conditions: both partners purified.

The target in assay [2] is T2, HA-HDM2 (human, recombinant, wild type) (human, UniProt Q00987 1-491).
T2 construct: human MDM2 (HDM2); also called HA-HDM2 (WT); HA-MDM2 (human); source: insect cell expression, purified as described previously [13]; not shown: HA, N-terminal, kept
T2 sequence (Q00987 whole entry): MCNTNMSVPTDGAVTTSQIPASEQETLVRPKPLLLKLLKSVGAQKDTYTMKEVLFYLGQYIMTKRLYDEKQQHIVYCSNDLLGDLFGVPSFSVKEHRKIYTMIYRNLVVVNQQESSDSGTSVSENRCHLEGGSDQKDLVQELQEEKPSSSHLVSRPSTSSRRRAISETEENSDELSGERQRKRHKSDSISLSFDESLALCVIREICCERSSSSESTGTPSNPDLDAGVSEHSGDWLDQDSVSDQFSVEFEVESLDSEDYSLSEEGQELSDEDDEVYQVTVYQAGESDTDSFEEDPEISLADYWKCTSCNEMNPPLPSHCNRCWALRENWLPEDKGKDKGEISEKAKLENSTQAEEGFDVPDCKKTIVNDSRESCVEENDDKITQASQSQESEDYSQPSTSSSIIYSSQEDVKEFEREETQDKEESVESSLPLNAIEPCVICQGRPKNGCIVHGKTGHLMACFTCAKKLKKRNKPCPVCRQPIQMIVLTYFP
Described as above. The following applies: both partners purified.

T1 sequence (Q00987 whole entry L468A): as the sequence (Q00987 whole entry) above, with L468A counted along it

B1: human recombinant FLAG-MDM4 (natural protein, UniProt O15151 1-490, looked up)
chain: MTSFSTSAQCSTSDSACRISPGQINQVRPKLPLLKILHAAGAQGEMFTVKEVMHYLGQYIMVKQLYDQQEQHMVYCGGDLLGELLGRQSFSVKDPSPLYDMLRKNLVTLATATTDAAQTLALAQDHSMDIPSQDQLKQSAEESSTSRKRTTEDDIPTLPTSEHKCIHSREDEDLIENLAQDETSRLDLGFEEWDVAGLPWWFLGNLRSNYTPRSNGSTDLQTNQDVGTAIVSDTTDDLWFLNESVSEQLGVGIKVEAADTEQTSEEVGKVSDKKVIEVGKNDDLEDSKSLSDDTDVEVTSEDEWQCTECKKFNSPSKRYCFRCWALRKDWYSDCSKLTHSLSTSDITAIPEKENEGNDVPDCRRTISAPVVRPKDAYIKKENSKLFDPCNSVEFLDLAHSSESQETISSMGEQLDNLSEQRTDTENMEDCQNLLKPCSLCEKRPRDGNIIHGRTGHLVTCFHCARRLKKAGASCPICKKEIQLVIKVFIA
notes: human MDM4 (HDM4); also called FLAG-M4; HDM4; source: insect cell expression, purified as described previously [13]; not shown: FLAG, N-terminal, kept
For the molecule B1, the binding result in assay [1] and in assay [2] was “binds” in each case.
